Results taken from publication PMC6382874, “Succinylation-dependent mitochondrial translocation of PKM2 promotes cell survival in response to nutritional stress” (Cell Death & Disease, 2019).

Molecular target: T1, His-PKM2 (human, UniProt P14618 1-531)
T1 construct: Pyruvate kinase M2 (PKM2), human cDNA cloned into pET28a(+); also called His-tagged-PKM2; source: E. coli BL21, purified (Ni–agarose beads); not shown: His-tag, N-terminal, kept
Assay: pull-down; in vitro binding of His-PKM2 (2.5 μg) and GST-VDAC3, Ni–NTA agarose, western blot with anti-GST or anti-His antibody
Conditions: both partners purified

T1 sequence (P14618 whole entry): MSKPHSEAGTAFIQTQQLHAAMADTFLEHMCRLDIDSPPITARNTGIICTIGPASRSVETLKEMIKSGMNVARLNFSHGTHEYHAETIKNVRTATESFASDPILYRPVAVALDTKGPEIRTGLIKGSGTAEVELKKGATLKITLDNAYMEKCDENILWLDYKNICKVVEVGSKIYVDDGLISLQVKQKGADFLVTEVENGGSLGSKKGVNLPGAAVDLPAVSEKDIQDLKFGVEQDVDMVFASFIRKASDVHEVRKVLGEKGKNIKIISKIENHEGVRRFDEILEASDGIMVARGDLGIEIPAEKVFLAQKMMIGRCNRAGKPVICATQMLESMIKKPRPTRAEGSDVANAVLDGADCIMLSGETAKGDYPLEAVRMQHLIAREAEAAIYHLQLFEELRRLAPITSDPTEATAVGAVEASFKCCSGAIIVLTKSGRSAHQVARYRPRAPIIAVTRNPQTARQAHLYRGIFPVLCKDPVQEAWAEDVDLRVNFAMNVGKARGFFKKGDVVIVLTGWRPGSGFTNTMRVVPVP

binding result: binds
B1: GST-VDAC3 (natural protein, human, UniProt Q9Y277 1-283, looked up)
chain: MCNTPTYCDLGKAAKDVFNKGYGFGMVKIDLKTKSCSGVEFSTSGHAYTDTGKASGNLETKYKVCNYGLTFTQKWNTDNTLGTEISWENKLAEGLKLTLDTIFVPNTGKKSGKLKASYKRDCFSVGSNVDIDFSGPTIYGWAVLAFEGWLAGYQMSFDTAKSKLSQNNFALGYKAADFQLHTHVNDGTEFGGSIYQKVNEKIETSINLAWTAGSNNTRFGIAAKYMLDCRTSLSAKVNNASLIGLGYTQTLRPGVKLTLSALIDGKNFSAGGHKVGLGFELEA
notes: VDAC3, human cDNA cloned into pGEX-4T-1; also called GST-tagged-VDAC3; source: E. coli BL21, purified (GST agarose beads); the pull-down method also calls it in vitro translated; not shown: GST, N-terminal, kept
